# Measurements: patent publication CN111690058A (SANYOU BIO INC; SHANGHAI ZJ BIO TECH CO LTD, dated 2020)
# B1: 候选抗体P16-A3 (全长人IgG1, κ轻链) (antibody, V domains shown)
# VH: QVQLVESGGGVVQPGRSLRLSCAASGFTFSSYGMHWVRQAPGKGLEWVAVISYDGSNKYYADSVKGRFTISRDNSKNTLYLQMNSLRAEDTAVYYCARAYSSSWLLQSFYYYGMDVWGQGTTVTVSS
# VL: NIQLTQSPVSLSASVGDRVTLTCRASQGIGYSLVWYQKKPGTAPKLLIFDASTLQSGVPSRFSGSGSGTDFTLTISSLQPEDSATYYCQQVIHYPLTFGGGTKVEIK
# Assays:
# [1] = molecular target: T1, S蛋白RBD-His (319Arg-532Asn) (2019-nCoV (SARS-CoV-2), UniProt P0DTC2 319-532); assay: BLI (Fortebio), RBD-His on Anti-Penta-HIS sensor, antibody in solution
# [2] = molecular target: T1, S蛋白RBD-His (319Arg-532Asn)
binder,measurement,setting,value
B1,Kd,[1],0.415 nM
same,koff,[1],7.17e-05 s⁻¹
same,kon,[1],173000 M⁻¹ s⁻¹
same,IC50,[2],7.7 nM
